From paper PMC1450317

Target: T1, TSLP receptor (TSLPR) (mouse (endogenous in mouse thymocytes)) (UniProt Q8CII9)
T1 sequence: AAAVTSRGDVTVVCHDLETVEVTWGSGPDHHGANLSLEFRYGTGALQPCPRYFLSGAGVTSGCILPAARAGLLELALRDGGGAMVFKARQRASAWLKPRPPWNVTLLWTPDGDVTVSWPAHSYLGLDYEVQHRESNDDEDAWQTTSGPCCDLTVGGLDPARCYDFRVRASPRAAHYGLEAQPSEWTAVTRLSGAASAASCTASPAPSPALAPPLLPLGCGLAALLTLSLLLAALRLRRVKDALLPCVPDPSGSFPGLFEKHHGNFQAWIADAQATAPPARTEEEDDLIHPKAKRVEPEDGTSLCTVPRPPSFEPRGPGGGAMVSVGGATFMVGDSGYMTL

B1: thymic stromal derived lymphopoietin (TSLP), recombinant mouse (ligand)
chain: YNFSNCNFTSITKIYCNIIFHDLTGDLKGAKFEQIEDCESKPACLLKIEYYTLNPIPGCPSLPDKTFARRTREALNDHCPGYPETERNDGTQEMAQEVQNICLNQTSQILRLWYSFMQSPE
  FoxP3 mRNA (real-time PCR, FoxP3/18S) in purified CD4+CD8-CD25+ adult thymocytes cultured with TSLP for two days: 2 fold
  FoxP3 mRNA (real-time PCR, FoxP3/18S) in purified CD4+CD8-CD25- adult thymocytes cultured with TSLP for two days: 10 fold
